From patent EP2168984B1 (Abbott GmbH & Co. KG, dated 2012)

Tests used:
recombinant human IL-12 [1] = target: T1, recombinant human IL-12 (human, UniProt P29459 23-219; P29460 23-328); assay: cell-based or functional assay
T1 sequence (looked up) 1: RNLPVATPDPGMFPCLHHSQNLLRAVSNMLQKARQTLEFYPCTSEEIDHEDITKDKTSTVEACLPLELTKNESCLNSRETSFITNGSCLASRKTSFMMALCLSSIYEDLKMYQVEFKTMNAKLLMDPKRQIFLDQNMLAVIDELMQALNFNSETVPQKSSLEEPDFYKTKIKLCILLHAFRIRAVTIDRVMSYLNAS
T1 sequence (looked up) 2: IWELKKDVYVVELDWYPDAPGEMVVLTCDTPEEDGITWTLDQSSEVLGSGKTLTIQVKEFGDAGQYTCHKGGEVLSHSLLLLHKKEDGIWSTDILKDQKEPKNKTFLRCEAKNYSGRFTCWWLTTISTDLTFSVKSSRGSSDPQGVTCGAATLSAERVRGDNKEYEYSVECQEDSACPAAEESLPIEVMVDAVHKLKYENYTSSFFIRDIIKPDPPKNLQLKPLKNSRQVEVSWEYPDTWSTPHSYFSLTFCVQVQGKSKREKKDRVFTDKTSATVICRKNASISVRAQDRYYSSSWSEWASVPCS

Cyno IL-12 = target: T2, Cyno IL-12 (cynomolgus monkey); assay: cell-based or functional assay
T2 chain 1: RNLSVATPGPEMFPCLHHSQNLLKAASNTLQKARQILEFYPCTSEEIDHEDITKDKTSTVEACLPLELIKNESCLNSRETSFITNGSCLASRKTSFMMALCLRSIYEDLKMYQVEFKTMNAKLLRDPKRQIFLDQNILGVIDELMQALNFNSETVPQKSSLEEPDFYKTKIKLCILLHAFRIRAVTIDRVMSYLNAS
T2 chain 2: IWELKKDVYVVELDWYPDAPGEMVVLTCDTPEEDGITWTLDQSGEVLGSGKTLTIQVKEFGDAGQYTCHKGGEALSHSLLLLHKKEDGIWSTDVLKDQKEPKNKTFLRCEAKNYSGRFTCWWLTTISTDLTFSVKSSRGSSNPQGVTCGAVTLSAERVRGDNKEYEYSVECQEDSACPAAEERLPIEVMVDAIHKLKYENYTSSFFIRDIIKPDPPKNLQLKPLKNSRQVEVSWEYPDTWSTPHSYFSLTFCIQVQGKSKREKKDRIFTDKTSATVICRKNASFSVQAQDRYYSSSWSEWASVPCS

recombinant human IL-12 [2] = target: T1, recombinant human IL-12; assay: cell-based or functional assay; remark: listed apart in the source
recombinant human IL-12 [3] = target: T3, recombinant human IL-12 (human, UniProt P29459 23-219; P29460 23-328); assay: BIAcore SPR, immobilised IL-12
T3 construct: disulfide-linked p35/p40 heterodimer; also called hIL-12; rhIL-12
T3 sequence (looked up) 1: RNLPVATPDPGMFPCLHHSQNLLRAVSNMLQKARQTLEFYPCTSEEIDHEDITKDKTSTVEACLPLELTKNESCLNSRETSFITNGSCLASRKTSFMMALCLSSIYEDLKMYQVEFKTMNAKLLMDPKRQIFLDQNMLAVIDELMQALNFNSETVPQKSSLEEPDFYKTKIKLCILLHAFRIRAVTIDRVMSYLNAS
T3 sequence (looked up) 2: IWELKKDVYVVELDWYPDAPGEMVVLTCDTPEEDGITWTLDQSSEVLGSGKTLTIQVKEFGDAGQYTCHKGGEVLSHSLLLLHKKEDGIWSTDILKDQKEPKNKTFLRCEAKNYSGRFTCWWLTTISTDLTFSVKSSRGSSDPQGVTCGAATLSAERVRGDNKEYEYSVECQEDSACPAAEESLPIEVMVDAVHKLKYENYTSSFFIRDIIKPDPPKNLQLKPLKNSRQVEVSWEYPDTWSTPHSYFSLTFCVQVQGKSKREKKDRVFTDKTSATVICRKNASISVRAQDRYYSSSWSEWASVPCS

Dog IL-12 = target: T4, Dog IL-12 (dog, UniProt Q28267 26-222; Q28268 23-329); assay: cell-based or functional assay
T4 sequence (looked up) 1: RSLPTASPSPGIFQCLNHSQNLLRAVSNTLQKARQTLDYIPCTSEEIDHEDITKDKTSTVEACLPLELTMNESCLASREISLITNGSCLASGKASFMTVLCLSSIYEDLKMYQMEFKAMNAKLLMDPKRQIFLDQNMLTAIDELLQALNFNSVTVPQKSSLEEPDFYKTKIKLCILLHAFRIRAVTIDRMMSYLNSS
T4 sequence (looked up) 2: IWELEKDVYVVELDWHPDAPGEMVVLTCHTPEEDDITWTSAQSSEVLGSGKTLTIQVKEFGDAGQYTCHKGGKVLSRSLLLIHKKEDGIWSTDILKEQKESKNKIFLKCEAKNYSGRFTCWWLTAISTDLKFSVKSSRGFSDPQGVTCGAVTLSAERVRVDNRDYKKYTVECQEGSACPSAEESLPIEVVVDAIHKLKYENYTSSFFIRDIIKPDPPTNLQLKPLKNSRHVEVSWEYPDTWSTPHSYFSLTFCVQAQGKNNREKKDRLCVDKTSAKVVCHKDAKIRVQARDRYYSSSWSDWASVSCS

Rhesus IL-12 = target: T5, Rhesus IL-12 (rhesus monkey, UniProt P48091 23-219; P48095 23-328); assay: cell-based or functional assay
T5 sequence (looked up) 1: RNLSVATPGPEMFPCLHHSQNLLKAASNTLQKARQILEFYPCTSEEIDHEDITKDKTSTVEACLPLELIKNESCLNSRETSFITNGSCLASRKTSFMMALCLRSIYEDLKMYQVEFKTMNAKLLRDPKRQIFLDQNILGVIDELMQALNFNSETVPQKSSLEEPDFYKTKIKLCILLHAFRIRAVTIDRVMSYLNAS
T5 sequence (looked up) 2: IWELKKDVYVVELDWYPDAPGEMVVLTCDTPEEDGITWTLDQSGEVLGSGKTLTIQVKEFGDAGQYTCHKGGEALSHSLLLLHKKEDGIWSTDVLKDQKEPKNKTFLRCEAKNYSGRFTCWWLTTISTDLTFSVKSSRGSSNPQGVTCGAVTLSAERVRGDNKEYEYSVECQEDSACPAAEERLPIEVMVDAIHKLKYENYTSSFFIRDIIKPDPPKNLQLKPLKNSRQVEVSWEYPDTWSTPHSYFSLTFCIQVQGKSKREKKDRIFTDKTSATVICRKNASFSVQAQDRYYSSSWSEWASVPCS

Baboon IL-12 = target: T6, Baboon IL-12 (baboon); assay: cell-based or functional assay
T6 chain 1: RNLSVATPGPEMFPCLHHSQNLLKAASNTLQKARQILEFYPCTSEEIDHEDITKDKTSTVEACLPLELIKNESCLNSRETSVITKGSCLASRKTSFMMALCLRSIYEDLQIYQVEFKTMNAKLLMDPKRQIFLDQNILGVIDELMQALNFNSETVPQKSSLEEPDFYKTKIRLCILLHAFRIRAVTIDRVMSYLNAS
T6 chain 2: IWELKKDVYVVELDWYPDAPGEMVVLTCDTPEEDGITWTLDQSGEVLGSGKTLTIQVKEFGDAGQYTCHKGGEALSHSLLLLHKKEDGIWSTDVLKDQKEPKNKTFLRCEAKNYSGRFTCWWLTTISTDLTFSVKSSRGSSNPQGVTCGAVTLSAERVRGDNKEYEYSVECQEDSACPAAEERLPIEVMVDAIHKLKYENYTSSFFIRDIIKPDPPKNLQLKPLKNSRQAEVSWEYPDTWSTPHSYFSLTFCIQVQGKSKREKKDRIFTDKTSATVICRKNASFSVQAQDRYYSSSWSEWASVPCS

recombinant human IL-12 [4] = target: T1, recombinant human IL-12; assay: cell-based or functional assay; remark: listed apart in the source

B1: Y61 IgG (antibody, V domains shown)
VH: QVQLVQSGGGVVQPGRSLRLSCAASGFTFSSYGMHWVRQAPGKGLEWVAFIRYDGSNKYYADSVKGRFTISRDNSKNTLYLQMKSLRAEDTAVYYCKTHGSHDNWGQGTMVTVSS
VL: SYVLTQPPSVSGTPGQRVTISCSGGRSWIGSNTVKWYQQLPGTAPKLLIYGNDQRPSGVPDRFSGSKSGTSASLAITGVQAEDEADYYCQSYDRGTHPALLFGTGTKVTVLG
IC50 (M), species cross reactivity bioassay (recombinant human IL-12 [1]): 1.7e-10 M | IC50 (M), species cross reactivity bioassay (Cyno IL-12): 2.2e-10 M

B2: Y139 (scFv, V domains shown)
VH: QVQLVQSGGGVVQPGRSLRLSCAASGFTFSSYGMHWVRQAPGKGLEWVAFIRYDGSNKYYADSVKGRFTISRDNSKNTLYLQMKSLRAEDTAVYYCKTHGSHDNWGQGTMVTVSS
VL: SYVLTQPPSVSGTPGQRVTISCSGGRSNIGSNTVKWYQQLPGTAPKLLIYGNDQRPSGVPDRFSGSKSGTSASLAITGVQAEDEADYYCQSYDRGSHPALTFGTGTKVTVL
IFN gamma IC50 (recombinant human IL-12 [2]): 0.16 nM

B3: 177-H10 (scFv, V domains shown)
VH: QVQLVQSGGGVVQPGRSLRLSCAASGFTFSSYGMHWVRQAPGKGLEWVAFIRYDGSNKYYADSVKGRFTISRDNSKNTLYLQMKSLRAEDTAVYYCKTHGSHDNWGQGTMVTVSS
VL: SYVLTQPPSVSGTPGQRVTISCSGGRSNIGSNTVKWYQQLPGTAPKLLIYGNDQRPSGVPDRFSGSKSGTSASLAITGVQAEDEADYYCQSYDRGTHPTMYFGTGTKVTVL
koff (recombinant human IL-12 [3]): 0.344 s⁻¹

B4: J695 (Y61-L94Y- L50Y IgG*) (antibody, V domains shown)
VH: QVQLVESGGGVVQPGRSLRLSCAASGFTFSSYGMHWVRQAPGKGLEWVAFIRYDGSNKYYADSVKGRFTISRDNSKNTLYLQMNSLRAEDTAVYYCKTHGSHDNWGQGTMVTVSS
VL: QSVLTQPPSVSGAPGQRVTISCSGSRSNIGSNTVKWYQQLPGTAPKLLIYYNDQRPSGVPDRFSGSKSGTSASLAITGLQAEDEADYYCQSYDRYTHPALLFGTGTKVTVLG
IC50 (M), species cross reactivity bioassay (recombinant human IL-12 [1]): 5e-12 M | IC50 (M), species cross reactivity bioassay (Dog IL-12): 3.5e-10 M | IC50 (M), species cross reactivity bioassay (Rhesus IL-12): 1e-11 M | IC50 (M), species cross reactivity bioassay (Cyno IL-12): 1e-11 M | IC50 (M), species cross reactivity bioassay (Baboon IL-12): 1.5e-11 M | PHA blast Assay IC50 (recombinant human IL-12 [4]): 0.0058 nM
